The data set is described as follows: yeast display, Sf9 membrane polyspecificity reagent, FACS + sequencing; frameworks hold sequencing errors. The method in brief: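 Nanobodies from a synthetic yeast display library (Saccharomyces cerevisiae BJ5465), induced 36–48 hours with galactose, were stained 1 hour at 4 °C with 10% biotinylated, detergent-solubilized Sf9 membrane reagent, enriched on streptavidin microbeads, then FACS-sorted. Anti-HA (expression) and streptavidin (reagent binding) fluorescence set low and high (top ~1%) gates. Polyreactivity labels come from the gate of origin. Genes were colony-PCR amplified, MiSeq 2 × 250 sequenced and filtered by CDR length.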
Regarding “QVQLVESGGGLVQAGGSLRLSCAASGSTFLLNAMGWYRQAPGKERELVAAITSSGGTNYADSVKGRFTISRDNAKNTVYLQMISLKPEDTAVYYCNTRYSPGYQGTEVDYWGQGTQVTVSS”, the “polyreactivity (PSR sort gate)” value was “low polyreactivity”. Take “QVQLVESGGGLVQAGGSLRLSCAASGSTFLLNAMGWYRQAPGTERELVAAITSSGGTNYADSVKGRFTISRDNAKNTVYLQMNSLKPEDTAVYYCAKDQERVTKGRFYLLEYYWGQGTQVTVSS”: the “polyreactivity (PSR sort gate)” value is listed as “low polyreactivity”. In the case of “QVQLVESGGGLVQAGGSLRLSCAASGSTFLLYAMGWSRQAPGKERELVASISGDGSTNYADSVKGRFTISRDNAKNTVYLQMNSLKPEDTAVYYCARDTVHRLRISSVISNYWGQGTQVTVSS” it was “low polyreactivity”; in that of “QVQLVESGGGLVQAGGSLRLSCAASGSTFLPYAMGWYRQAPGKERELVAAIRWSVGSTYYADSVKGRFTISRDNAKNTVYLQMNSLIPEVTAGYYCYAVVYVVGDFDYWGQGSQVTVSS”, “high polyreactivity”. In the case of “QVQLVESGGGLVQAGGSLRLSCAASGSTFLQYAMGWYRQPPGKERELVAAIRFSTGTTYYADSVKGRFTISRDNAKNTVYLQMNSLKPEDTAVYYCNAVGTYRPWFHTYGYWGQGTQVTVSS” it was “high polyreactivity”; in that of “QVQLVESGGGLVQAGGSLRLSCAASGSTFLRNAMGWYRQAPGKERELVATITNGGSTYYADSVKGRFTISRDNAKNTVYLQMNSLKPEDTAVYYCATRSSYWSWLRYGYGYWGQGTQVTVSS”, “low polyreactivity”. With “QVQLVESGGGLVQAGGSLRLSCAASGSTFLRNAMRWYRQAPGKERELVAAISRSGGSTYYADSVKGRFTSSRDNAKNTVYLQMNSLKPEDTAVYYCAAVVKYRYSAYGGDYCGQGTQVTVSS” the entry was “high polyreactivity”; with “QVQLVESGGGLVQAGGSLRLSCAASGSTFLRNDMGWYRQAPGKERELVAAITSGGITNYADSVKGRFTISRDNAKNTVSLQMNSLKPEDTAVYYCNKDSDLHHYHTEFDYWGQGTQVTVSS”, “low polyreactivity”. Take “QVQLVESGGGLVQAGGSLRLSCAASGSTFLRNVMGWYRQAPGKERELVAAISSRGGSTHYADSVKGRFTISRDNAKNTDYLQMNSLKPEDTAVYYCNAERTAAQYVRAAYDYWGQGTQVTVSS”: the “polyreactivity (PSR sort gate)” value is “low polyreactivity”. In the case of “QVQLVESGGGLVQAGGSLRLSCAASGSTFLSYAMGWYRQAPGKERELVAAITGSGGSTYYADSVKGRFTISRDNAKNTVYLQMNSLKPEDTAVYYCATDLWRWYGWFDYWGQGTQVTVSS” it was “low polyreactivity”; in that of “QVQLVESGGGLVQAGGSLRLSCAASGSTFLTNTMGWYRQAPGKERELVAIISRSSGTTYYSDSVKGRFTISRDNAKNTVYLQMNSLKPEDTAVYYCAKRYRRAYPYSKNDYWGQGTQVTVSS”, “high polyreactivity”; in that of “QVQLVESGGGLVQAGGSLRLSCAASGSTFLVYAMGWYRQAPGKERELVAAIRGGGSTNYADSVKGRFTISRDNAKNTVYLQMNSLKPEDTAVYYCNADIVLSWFGSGFDYWGQGTQVTVSS”, “low polyreactivity”. Regarding “QVQLVESGGGLVQAGGSLRLSCAASGSTFLYNALGWYRPAPGKEREFVAAISGSGGTTYYADSVKGRFTISRDNAKNTVYLQMNSLKPEDTAVYYCAVSQSWYWYYASDYWGQGTQVTVSS”, the “polyreactivity (PSR sort gate)” value is given as “low polyreactivity”. For “QVQLVESGGGLVQAGGSLRLSCAASGSTFLYNTMGWYRQAPGKERELVATITSRGDRTYYADSVKGRFTISRDIPKNNVYLQMNSLKPEDTAVYYCNAYGGNYPQSYRYYYWGQGTQVTVSS”, the “polyreactivity (PSR sort gate)” value is “low polyreactivity”.

Turning to “QVQLVESGGGLVQAGGSLRLSCAASGSTFLYYAMGCYRQAPGKDRELVARITTRVGRTYYADSVKGRFTISRDNAKNTVYLQMNSLKPEDTAVYYCNAPYLKSRFRAYYHWGQGTQVTVAS”, the “polyreactivity (PSR sort gate)” value is given as “high polyreactivity”. With “QVQLVESGGGLVQAGGSLRLSCAASGSTFLYYAMGWYRPAPGKEREFVASISGSGGSTNYADSVKGRFTISRDNAKTTVYLQLNSLKPEDTAVYYCAAGYGGWAWNHVSYGGDYWGQGTQVTVSS” the entry was “low polyreactivity”.

(Values after the nanobody polyreactivity screen of Harvey et al. (2022).)
